In patent US20050064507:

Legend:
[1] = molecular target: T1, EBNA1BP2 peptide KRPGKKGSNKRPGKR (SEQ ID NO:112) (not fully specified)
T1 chain: KRPGKKGSNKRPGKR

[2] = molecular target: T2, KCNH2 peptide RQRKRKLSFRRRTDKD (SEQ ID NO:86) (not fully specified)
T2 chain: RQRKRKLSFRRRTDKD

[3] = molecular target: T3, SDPR peptide EKIKRSSLKKVDSLKK (SEQ ID NO:104) (not fully specified)
T3 chain: EKIKRSSLKKVDSLKK

[4] = molecular target: T4, kinesin 3C peptide LEKRGMLGKRPRRKSSRRKK (SEQ ID NO:133) (not fully specified)
T4 chain: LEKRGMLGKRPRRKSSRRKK

[5] = molecular target: T5, p164-RhoGEF peptide PRLIRRGSKKRPAR (SEQ ID NO:82) (not fully specified)
T5 chain: PRLIRRGSKKRPAR

[6] = molecular target: T6, beta adducin peptide PSKSPSKKKKKFRTPSFLKK (SEQ ID NO:137) (not fully specified)
T6 chain: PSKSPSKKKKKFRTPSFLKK

[7] = molecular target: T7, … peptide KKPFKLSGLSFKRNRKE (SEQ ID NO:88) (not fully specified)
T7 chain: KKPFKLSGLSFKRNRKE

[8] = molecular target: T8, dag kinase zeta peptide KKKKRASFKRKSSKKG (SEQ ID NO:114) (not fully specified)
T8 chain: KKKKRASFKRKSSKKG

[9] = molecular target: T9, pkc-zeta peptide GLPAPGEDKSIYRRGSRRWR (SEQ ID NO:167) (not fully specified)
T9 chain: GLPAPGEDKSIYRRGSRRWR

[10] = molecular target: T10, dag kinase iota peptide PQNSLKASNRKKKRTSFKRK (SEQ ID NO:151) (not fully specified)
T10 chain: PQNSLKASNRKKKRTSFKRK

[11] = molecular target: T11, LIMK-2 peptide LRRRSLRRSNSISKSPGP (SEQ ID NO:121) (not fully specified)
T11 chain: LRRRSLRRSNSISKSPGP

[12] = molecular target: T12, PSCDBP peptide LSSMFGTLPRKSRKGSVRKQ (SEQ ID NO:144) (not fully specified)
T12 chain: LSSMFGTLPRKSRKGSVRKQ

[13] = molecular target: T13, PKD1 peptide RVVQSVKHTKRKSSTVMK (SEQ ID NO:149) (not fully specified)
T13 chain: RVVQSVKHTKRKSSTVMK

[14] = molecular target: T14, titin peptide PFEVVWYKDKRQLRSSKKYK (SEQ ID NO:160) (not fully specified)
T14 chain: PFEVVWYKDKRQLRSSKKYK

[15] = molecular target: T15, PPP1R14A peptide QKRHARVTVKYDRRE (SEQ ID NO:107) (not fully specified)
T15 chain: QKRHARVTVKYDRRE

[16] = molecular target: T16, dag kinase zeta peptide RPQNTLKASKKKKRASFKRK (SEQ ID NO:118) (not fully specified)
T16 chain: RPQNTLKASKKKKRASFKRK

[17] = molecular target: T17, M1 muscarinic receptor peptide RWDKRRWRKIPKRPGSVHRT (SEQ ID NO:155) (not fully specified)
T17 chain: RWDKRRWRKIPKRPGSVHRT

[18] = molecular target: T18, ubiquitin specific protease 8 peptide RARRDSLKKIEIW (SEQ ID NO:136) (not fully specified)
T18 chain: RARRDSLKKIEIW

[19] = molecular target: T19, cytohesin-2 peptide VDPFYEMLAARKKRISVKKK (SEQ ID NO:150) (not fully specified)
T19 chain: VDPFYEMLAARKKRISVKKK

[20] = molecular target: T20, slp4 peptide TYLLPDKSRQGKRKTSIKRD (SEQ ID NO:153) (not fully specified)
T20 chain: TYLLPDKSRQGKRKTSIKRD

[21] = molecular target: T21, Myt1 kinase peptide PPRTPGWHQLQPRRVSFRGE (SEQ ID NO:163) (not fully specified)
T21 chain: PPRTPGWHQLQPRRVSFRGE

[22] = molecular target: T22, ARHGAP6 peptide DGQKRKKSLRKKLD (SEQ ID NO:92) (not fully specified)
T22 chain: DGQKRKKSLRKKLD

[23] = molecular target: T23, splicing factor, arginine/serine-rich 4 peptide RSRSRSRSKSKDKRKSRKRS (SEQ ID NO:134) (not fully specified)
T23 chain: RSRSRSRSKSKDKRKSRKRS

[24] = molecular target: T24, MYBPC3 peptide LLKKRDSFRTPRDSKLE (SEQ ID NO:103) (not fully specified)
T24 chain: LLKKRDSFRTPRDSKLE

[25] = molecular target: T25, ADD2 peptide KKKFRTPSFLKKSKK (SEQ ID NO:95) (not fully specified)
T25 chain: KKKFRTPSFLKKSKK

[26] = molecular target: T26, GABA A receptor beta 2 peptide ERHVAQKKSRLRRRASQLKI (SEQ ID NO:142) (not fully specified)
T26 chain: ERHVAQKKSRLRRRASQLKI

[27] = molecular target: T27, NF1 peptide AGSFKRNSIKKIV (SEQ ID NO:102) (not fully specified)
T27 chain: AGSFKRNSIKKIV

[28] = molecular target: T28, PARIS1 peptide EYLERRASRRRAV (SEQ ID NO:130) (not fully specified)
T28 chain: EYLERRASRRRAV

[29] = molecular target: T29, PRKCM peptide VHYTSKDTLRKRHYWR (SEQ ID NO:91) (not fully specified)
T29 chain: VHYTSKDTLRKRHYWR

[30] = molecular target: T30, SMARCA5 peptide MAQIERGEARIQRRISIKKA (SEQ ID NO:166) (not fully specified)
T30 chain: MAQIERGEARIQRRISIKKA

[31] = molecular target: T31, beta adducin peptide KKKFRTPSFLKKSKK (SEQ ID NO:135) (not fully specified)
T31 chain: KKKFRTPSFLKKSKK

B1: PKC-epsilon (protein)
chain: MVVFNGLLKIKICEAVSLKPTAWSLRHAVGPRPQTFLLDPYIALNVDDSRIGQTATKQKTNSPAWHDEFVTDVCNGRKIELAVFHDAPIGYDDFVANCTIQFEELLQNGSRHFEDWIDLEPEGRVYVIIDLSGSSGEAPKDNEERVFRERMRPRKRQGAVRRRVHQVNGHKFMATYLRQPTYCSHCRDFIWGVIGKQGYQCQVCTCVVHKRCHELIITKCAGLKKQETPDQVGSQRFSVNMPHKFGIHNYKVPTFCDHCGSLLWGLLRQGLQCKVCKMNVHRRCETNVAPNCGVDARGIAKVLADLGVTPDKITNSGQRRKKLIAGAESPQPASGSSPSEEDRSKSAPTSPCDQEIKELENNIRKALSFDNRGEEHRAASSPDGQLMSPGENGEVRQGQAKRLGLDEFNFIKVLGKGSFGKVMLAELKGKDEVYAVKVLKKDVILQDDDVDCTMTEKRILALARKHPYLTQLYCCFQTKDRLFFVMEYVNGGDLMFQIQRSRKFDEPRSRFYAAEVTSALMFLHQHGVIYRDLKLDNILLDAEGHCKLADFGMCKEGILNGVTTTTFCGTPDYIAPEILQELEYGPSVDWWALGVLMYEMMAGQPPFEADNEDDLFESILHDDVLYPVWLSKEAVSILKAFMTKNPHKRLGCVASQNGEDAIKQHPFFKEIDWVLLEQKKIKPPFKPRIKTKRDVNNFDQDFTREEPVLTLVDEAIVKQINQEEFKGFSYFGEDLMP
- in vitro phosphorylation (% of best substrate) [1]: 11
- in vitro phosphorylation (% of best substrate) [2]: 63
- in vitro phosphorylation (% of best substrate) [3]: 17
- in vitro phosphorylation, 1 uM peptide (% of best substrate) [4]: 31
- in vitro phosphorylation (% of best substrate) [5]: 72
- in vitro phosphorylation, 1 uM peptide (% of best substrate) [6]: 32
- in vitro phosphorylation (% of best substrate) [7]: 44
- in vitro phosphorylation, 1 uM peptide (% of best substrate) [8]: 100
- in vitro phosphorylation, 1 uM peptide (% of best substrate) [9]: 6
- in vitro phosphorylation, 1 uM peptide (% of best substrate) [10]: 24
- in vitro phosphorylation, 1 uM peptide (% of best substrate) [11]: 49
- in vitro phosphorylation, 1 uM peptide (% of best substrate) [12]: 24
- in vitro phosphorylation, 1 uM peptide (% of best substrate) [13]: 27
- in vitro phosphorylation, 1 uM peptide (% of best substrate) [14]: 13
- in vitro phosphorylation (% of best substrate) [15]: 7
- in vitro phosphorylation, 1 uM peptide (% of best substrate) [16]: 89
- in vitro phosphorylation, 1 uM peptide (% of best substrate) [17]: 26
- in vitro phosphorylation, 1 uM peptide (% of best substrate) [18]: 33
- in vitro phosphorylation, 1 uM peptide (% of best substrate) [19]: 20
- in vitro phosphorylation, 1 uM peptide (% of best substrate) [20]: 24
- in vitro phosphorylation, 1 uM peptide (% of best substrate) [21]: 14
- in vitro phosphorylation (% of best substrate) [22]: 51
- in vitro phosphorylation, 1 uM peptide (% of best substrate) [23]: 32
- in vitro phosphorylation (% of best substrate) [24]: 21
- in vitro phosphorylation (% of best substrate) [25]: 31
- in vitro phosphorylation, 1 uM peptide (% of best substrate) [26]: 28
- in vitro phosphorylation (% of best substrate) [27]: 14
- in vitro phosphorylation, 1 uM peptide (% of best substrate) [28]: 46
- in vitro phosphorylation (% of best substrate) [29]: 49
- in vitro phosphorylation, 1 uM peptide (% of best substrate) [30]: 10
- in vitro phosphorylation, 1 uM peptide (% of best substrate) [31]: 27

B2: PKC-zeta (protein)
chain: MPSRTGPKMEGSGGRVRLKAHYGGDIFITSVDAATTFEELCEEVRDMCRLHQQHPLTLKWVDSEGDPCTVSSQMELEEAFRLARQCRDEGLIIHVFPSTPEQPGLPCPGEDKSIYRRGARRWRKLYRANGHLFQAKRFNRRAYCGQCSERIWGLARQGYRCINCKLLVHKRCHGLVPLTCRKHMDSVMPSQEPPVDDKNEDADLPSEETDGIAYISSSRKHDSIKDDSEDLKPVIDGMDGIKISQGLGLQDFDLIRVIGRGSYAKVLLVRLKKNDQIYAMKVVKKELVHDDEDIDWVQTEKHVFEQASSNPFLVGLHSCFQTTSRLFLVIEYVNGGDLMFHMQRQRKLPEEHARFYAAEICIALNFLHERGIIYRDLKLDNVLLDADGHIKLTDYGMCKEGLGPGDTTSTFCGTPNYIAPEILRGEEYGFSVDWWALGVLMFEMMAGRSPFDIITDNPDMNTEDYLFQVILEKPIRIPRFLSVKASHVLKGFLNKDPKERLGCRPQTGFSDIKSHAFFRSIDWDLLEKKQALPPFQPQITDDYGLDNFDTQFTSEPVQLTPDDEDAIKRIDQSEFEGFEYINPLLLSTEESV
- in vitro phosphorylation (% of best substrate) [1]: 1
- in vitro phosphorylation (% of best substrate) [2]: 28
- in vitro phosphorylation (% of best substrate) [3]: 3
- in vitro phosphorylation, 1 uM peptide (% of best substrate) [4]: 27
- in vitro phosphorylation, 10 uM peptide (% of best substrate) [4]: 30
- in vitro phosphorylation (% of best substrate) [5]: 38
- in vitro phosphorylation, 1 uM peptide (% of best substrate) [6]: 4
- in vitro phosphorylation, 10 uM peptide (% of best substrate) [6]: 5
- in vitro phosphorylation (% of best substrate) [7]: 4
- in vitro phosphorylation, 1 uM peptide (% of best substrate) [8]: 45
- in vitro phosphorylation, 10 uM peptide (% of best substrate) [8]: 51
- in vitro phosphorylation, 1 uM peptide (% of best substrate) [9]: 5
- in vitro phosphorylation, 10 uM peptide (% of best substrate) [9]: 37
- in vitro phosphorylation, 1 uM peptide (% of best substrate) [10]: 15
- in vitro phosphorylation, 10 uM peptide (% of best substrate) [10]: 28
- in vitro phosphorylation, 1 uM peptide (% of best substrate) [11]: 60
- in vitro phosphorylation, 10 uM peptide (% of best substrate) [11]: 56
- in vitro phosphorylation, 1 uM peptide (% of best substrate) [12]: 16
- in vitro phosphorylation, 10 uM peptide (% of best substrate) [12]: 54
- in vitro phosphorylation, 1 uM peptide (% of best substrate) [13]: 3
- in vitro phosphorylation, 10 uM peptide (% of best substrate) [13]: 5
- in vitro phosphorylation, 1 uM peptide (% of best substrate) [14]: 15
- in vitro phosphorylation, 10 uM peptide (% of best substrate) [14]: 57
- in vitro phosphorylation (% of best substrate) [15]: 1
- in vitro phosphorylation, 1 uM peptide (% of best substrate) [16]: 46
- in vitro phosphorylation, 10 uM peptide (% of best substrate) [16]: 57
- in vitro phosphorylation, 1 uM peptide (% of best substrate) [17]: 19
- in vitro phosphorylation, 10 uM peptide (% of best substrate) [17]: 6
- in vitro phosphorylation, 1 uM peptide (% of best substrate) [18]: 6
- in vitro phosphorylation, 10 uM peptide (% of best substrate) [18]: 9
- in vitro phosphorylation, 1 uM peptide (% of best substrate) [19]: 3
- in vitro phosphorylation, 10 uM peptide (% of best substrate) [19]: 6
- in vitro phosphorylation, 1 uM peptide (% of best substrate) [20]: 6
- in vitro phosphorylation, 10 uM peptide (% of best substrate) [20]: 13
- in vitro phosphorylation, 1 uM peptide (% of best substrate) [21]: 7
- in vitro phosphorylation, 10 uM peptide (% of best substrate) [21]: 26
- in vitro phosphorylation (% of best substrate) [22]: 2
- in vitro phosphorylation, 1 uM peptide (% of best substrate) [23]: 5
- in vitro phosphorylation, 10 uM peptide (% of best substrate) [23]: 5
- in vitro phosphorylation (% of best substrate) [24]: 8
- in vitro phosphorylation (% of best substrate) [25]: 5
- in vitro phosphorylation, 1 uM peptide (% of best substrate) [26]: 22
- in vitro phosphorylation, 10 uM peptide (% of best substrate) [26]: 37
- in vitro phosphorylation (% of best substrate) [27]: 2
- in vitro phosphorylation, 1 uM peptide (% of best substrate) [28]: 36
- in vitro phosphorylation, 10 uM peptide (% of best substrate) [28]: 39
- in vitro phosphorylation (% of best substrate) [29]: 12
- in vitro phosphorylation, 1 uM peptide (% of best substrate) [30]: 2
- in vitro phosphorylation, 10 uM peptide (% of best substrate) [30]: 9
- in vitro phosphorylation, 1 uM peptide (% of best substrate) [31]: 11
- in vitro phosphorylation, 10 uM peptide (% of best substrate) [31]: 13
